Assay results: patent publication US20210163599A1

What was measured:
[1] = biological target: huPD-L1-Fc (R&D Systems) (human) (UniProt Q9NZQ7); test: competition ELISA: hu PD-1-Fc coated, huPD-L1-Fc preincubated with the antibody
[2] = biological target: huPD-L1-Fc (R&D Systems) (human) (UniProt Q9NZQ7); test: competition ELISA: hu CD80-Fc coated, 1.6 nM huPD-L1-Fc preincubated with the antibody
[3] = biological target: huPD-L1-Fc (R&D Systems) (human) (UniProt Q9NZQ7); test: Biacore, ligand rhPD-L1-Fc, Affimer as analyte

Chain of huPD-L1-Fc (R&D Systems) (human) (Q9NZQ7 19-239 limits assumed): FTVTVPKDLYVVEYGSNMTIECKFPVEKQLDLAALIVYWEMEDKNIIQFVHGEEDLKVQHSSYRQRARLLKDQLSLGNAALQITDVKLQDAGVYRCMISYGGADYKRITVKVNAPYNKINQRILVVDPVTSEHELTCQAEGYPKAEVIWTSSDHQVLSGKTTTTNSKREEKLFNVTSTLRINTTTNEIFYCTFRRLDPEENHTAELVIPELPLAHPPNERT

Row | IC50 [1] | IC50 [2] | koff [3] | kon [3] | Binder
1 | 0.18 nM | 0.31 nM | – | – | mAb anti huPD-L1 29E.2A3 (Biolegend) (antibody, from another filing, V domains shown) VH: EVQLQQSGPELVKPGASVKMSCKASGYTFTSYVMHWVKQKPGQGLEWIGYVNPFNDGTKYNEMFKGKATLTSDKSSSTAYMELSSLTSEDSAVYYCARQAWGYPWGQGTLVTVSA VL: DIVLTQSPASLAVSLGQRATISCRATESVEYYGTSLVQWYQQKPGQPPKLLIYAASSVDSGVPARFSGSGSGTDFSLTIHPVEEDDIAMYFCQQSRRVPYTFGGGTKLEIK
2 | – | – | 0.00129 s⁻¹ | 752000 M⁻¹ s⁻¹ | AVA04-251 BH (designed binder, from a related filing) MIPRGLSEAKPATPEIQEIVDKVKPQLEEKTNETYGKLEAVQYKTQVLAREGRQDWVLSTNYYIKVRAGDNKYMHLKVFNGPWVPFPHQQLADRVLTGYQVDKNKDDELTGFAEAAAKEAAAKEAAAKEAAAKEAAAKEAAAKMIPRGLSEAKPATPEIQEIVDKVKPQLEEKTNETYGKLEAVQYKTQVLAREGRQDWVLSTNYYIKVRAGDNKYMHLKVFNGPWVPFPHQQLADRVLTGYQVDKNKDDELTGFHHHHHH
